Test results reported in PMC2693456.

Key:
[1] = biological target: annexin II (UniProt Q07936); test: biotin-peptide streptavidin pull-down, LC-MS/MS; details: reference: nonphospho-peptide
[2] = biological target: Heat Shock Protein 70 Isoform 1 (hsp70-1); test: biotin-peptide streptavidin pull-down, LC-MS/MS; details: reference: nonphospho-peptide; sites S261
[3] = biological target: Heat Shock Protein 70 Isoform 2 (hsp70-2) (UniProt P14659); test: biotin-peptide streptavidin pull-down, LC-MS/MS; details: reference: nonphospho-peptide
[4] = biological target: heat shock cognate 70 (hsc70; hsp70 isoform 8) (UniProt P63018); test: biotin-peptide streptavidin pull-down, LC-MS/MS; details: reference: nonphospho-peptide
[5] = biological target: BiP (Grp78, hsp70 isoform 5) (UniProt P06761); test: biotin-peptide streptavidin pull-down, LC-MS/MS; details: reference: nonphospho-peptide
[6] = biological target: BiP (Grp78, hsp70 isoform 5) (UniProt P06761); test: biotin-peptide streptavidin pull-down, immunoblot; details: reference: nonphospho-peptide; sites S256

| other: label-free MS quantification vs no-peptide control (Table 2) ([1]; sites S261) | other: label-free MS quantification vs no-peptide control (Table 2) [2] | other: label-free MS quantification vs no-peptide control (Table 2) ([3]; sites S261) | other: label-free MS quantification vs no-peptide control (Table 2) ([4]; sites S261) | other: label-free MS quantification vs no-peptide control (Table 2) ([5]; sites S261) | other: label-free MS quantification vs no-peptide control (Table 2) ([1]; sites S256) | other: label-free MS quantification vs no-peptide control (Table 2) ([3]; sites S256) | other: label-free MS quantification vs no-peptide control (Table 2) ([4]; sites S256) | other: label-free MS quantification vs no-peptide control (Table 2) ([5]; sites S256) | binding against the reference [6] | Substance |
| --- | --- | --- | --- | --- | --- | --- | --- | --- | --- | --- |
| weaker; reference 3.19 ± 0.32 | weaker; reference 3.41 ± 0.44 | weaker; reference 4.17 ± 0.38 | weaker; reference 5.70 ± 0.27 | weaker; reference 2.13 ± 0.57 | – | – | – | – | – | aquaporin-2 (AQP2) COOH-terminal peptide COOH-terminal tail (from UniProt P34080) pS261 peptide |
| – | – | – | – | – | weaker; reference 3.19 ± 0.32 | weaker; reference 4.17 ± 0.38 | weaker; reference 5.70 ± 0.27 | stronger; reference 2.13 ± 0.57 | stronger | aquaporin-2 (AQP2) COOH-terminal peptide COOH-terminal tail (from UniProt P34080) pS256 peptide |
